IntAct's records for PubMed 23435383

B1: Endonuclease III homolog 2 (Saccharomyces cerevisiae), Q08214 (parent)
chain: MREESRSRKRKHIPVDIEEVEVRSKYFKKNERTVELVKENKINKDLQNYGGVNIDWIKALKPIEYFEWIESRTCDDPRTWGRPITKEEMINDSGAKVPESFLPIYNRVRLMRSKVKTPVDAMGCSMIPVLVSNKCGIPSEKVDPKNFRLQFLIGTMLSAQTRDERMAQAALNITEYCLNTLKIAEGITLDGLLKIDEPVLANLIRCVSFYTRKANFIKRTAQLLVDNFDSDIPYDIEGILSLPGVGPKMGYLTLQKGWGLIAGICVDVHVHRLCKMWNWVDPIKCKTAEHTRKELQVWLPHSLWYEINTVLVGFGQLICMARGKRCDLCLANDVCNARNEKLIESSKFHQLEDKEDIEKVYSHWLDTVTNGITTERHKKK
partner: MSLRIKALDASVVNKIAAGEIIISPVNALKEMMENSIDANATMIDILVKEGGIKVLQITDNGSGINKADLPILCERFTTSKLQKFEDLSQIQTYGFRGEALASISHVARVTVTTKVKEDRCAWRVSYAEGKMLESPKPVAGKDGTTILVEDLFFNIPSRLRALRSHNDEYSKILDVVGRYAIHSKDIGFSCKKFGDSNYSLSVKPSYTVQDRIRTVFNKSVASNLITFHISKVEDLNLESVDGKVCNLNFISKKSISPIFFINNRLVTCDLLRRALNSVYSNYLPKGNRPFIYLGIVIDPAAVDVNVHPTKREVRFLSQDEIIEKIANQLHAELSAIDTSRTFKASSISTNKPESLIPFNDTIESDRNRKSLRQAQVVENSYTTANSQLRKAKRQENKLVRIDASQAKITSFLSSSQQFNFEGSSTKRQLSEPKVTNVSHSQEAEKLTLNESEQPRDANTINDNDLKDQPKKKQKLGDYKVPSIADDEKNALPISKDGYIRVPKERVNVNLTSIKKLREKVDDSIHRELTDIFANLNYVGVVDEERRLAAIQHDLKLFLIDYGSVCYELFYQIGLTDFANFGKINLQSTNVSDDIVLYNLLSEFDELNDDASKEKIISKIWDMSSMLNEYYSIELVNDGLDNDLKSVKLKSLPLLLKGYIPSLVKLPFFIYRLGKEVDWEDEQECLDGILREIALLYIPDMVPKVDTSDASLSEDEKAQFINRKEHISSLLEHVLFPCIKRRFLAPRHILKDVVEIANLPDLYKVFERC
B2: DNA mismatch repair protein MLH1 (Saccharomyces cerevisiae), P38920 (parent)
chain: B1 partner
partner: B1 chain
B3: DNA mismatch repair protein MLH1 (Saccharomyces cerevisiae), P38920 (parent)
chain: B1 partner
partner: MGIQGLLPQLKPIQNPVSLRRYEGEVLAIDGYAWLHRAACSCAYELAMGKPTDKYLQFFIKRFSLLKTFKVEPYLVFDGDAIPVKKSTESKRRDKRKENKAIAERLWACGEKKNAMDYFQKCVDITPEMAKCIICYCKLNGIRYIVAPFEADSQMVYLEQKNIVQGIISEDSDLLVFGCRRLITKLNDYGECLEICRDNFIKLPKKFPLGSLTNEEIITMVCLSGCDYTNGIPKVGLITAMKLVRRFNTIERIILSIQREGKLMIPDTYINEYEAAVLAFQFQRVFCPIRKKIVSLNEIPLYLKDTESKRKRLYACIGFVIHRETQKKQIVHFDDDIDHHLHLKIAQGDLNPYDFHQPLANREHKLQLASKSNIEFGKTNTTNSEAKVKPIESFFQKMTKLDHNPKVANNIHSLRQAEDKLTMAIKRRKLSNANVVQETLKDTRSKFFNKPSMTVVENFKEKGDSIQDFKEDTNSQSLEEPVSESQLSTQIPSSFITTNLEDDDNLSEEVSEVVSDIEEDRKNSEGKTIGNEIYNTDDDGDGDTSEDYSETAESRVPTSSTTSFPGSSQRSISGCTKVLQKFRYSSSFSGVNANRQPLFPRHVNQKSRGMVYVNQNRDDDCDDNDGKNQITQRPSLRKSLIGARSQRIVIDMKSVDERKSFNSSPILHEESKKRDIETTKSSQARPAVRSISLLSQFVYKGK

Variants of: B1
Conditions: with mlh1_yeast MLH1, P38920

Question: MREESRSRKRKHIPVDIEEVEVRSKFFKKNERTVELVKENKINKDLQNYGGVNIDWIKALKPIEYFEWIESRTCDDPRTWGRPITKEEMINDSGAKVPESFLPIYNRVRLMRSKVKTPVDAMGCSMIPVLVSNKCGIPSEKVDPKNFRLQFLIGTMLSAQTRDERMAQAALNITEYCLNTLKIAEGITLDGLLKIDEPVLANLIRCVSFYTRKANFIKRTAQLLVDNFDSDIPYDIEGILSLPGVGPKMGYLTLQKGWGLIAGICVDVHVHRLCKMWNWVDPIKCKTAEHTRKELQVWLPHSLWYEINTVLVGFGQLICMARGKRCDLCLANDVCNARNEKLIESSKFHQLEDKEDIEKVYSHWLDTVTNGITTERHKKK [Y26F] was tested. Which “effect of a mutation on the interaction” value did it give?
Answer: decreasing interaction strength

Question: With MREESRSRKRKHIPVDIEEVEVRSKYYKKNERTVELVKENKINKDLQNYGGVNIDWIKALKPIEYFEWIESRTCDDPRTWGRPITKEEMINDSGAKVPESFLPIYNRVRLMRSKVKTPVDAMGCSMIPVLVSNKCGIPSEKVDPKNFRLQFLIGTMLSAQTRDERMAQAALNITEYCLNTLKIAEGITLDGLLKIDEPVLANLIRCVSFYTRKANFIKRTAQLLVDNFDSDIPYDIEGILSLPGVGPKMGYLTLQKGWGLIAGICVDVHVHRLCKMWNWVDPIKCKTAEHTRKELQVWLPHSLWYEINTVLVGFGQLICMARGKRCDLCLANDVCNARNEKLIESSKFHQLEDKEDIEKVYSHWLDTVTNGITTERHKKK [F27Y] as the variant, how does the “effect of a mutation on the interaction” value read?
Answer: disrupting interaction strength

Question: For MREESRSRKRKHIPVDIEEVEVRSKYAKKNERTVELVKENKINKDLQNYGGVNIDWIKALKPIEYFEWIESRTCDDPRTWGRPITKEEMINDSGAKVPESFLPIYNRVRLMRSKVKTPVDAMGCSMIPVLVSNKCGIPSEKVDPKNFRLQFLIGTMLSAQTRDERMAQAALNITEYCLNTLKIAEGITLDGLLKIDEPVLANLIRCVSFYTRKANFIKRTAQLLVDNFDSDIPYDIEGILSLPGVGPKMGYLTLQKGWGLIAGICVDVHVHRLCKMWNWVDPIKCKTAEHTRKELQVWLPHSLWYEINTVLVGFGQLICMARGKRCDLCLANDVCNARNEKLIESSKFHQLEDKEDIEKVYSHWLDTVTNGITTERHKKK [F27A], which “effect of a mutation on the interaction” value is on record?
Answer: disrupting interaction strength

Variants of: B2
Conditions: with nth2_yeast NTG2, Q08214

Question: How did the “effect of a mutation on the interaction” value turn out when L511A was run?
Answer: disrupting interaction strength

Variants of: B3
Conditions: with exo1_yeast EXO1, P39875

Question: With L511A as the variant, how does the “effect of a mutation on the interaction” value read?
Answer: disrupting interaction strength
